Data taken from paper PMC3458557.

T1: GST-Rho-N-Strep (RHON1 C-terminal Rho-N domain) (Arabidopsis thaliana, UniProt Q94K75 362-401)
T1 chain: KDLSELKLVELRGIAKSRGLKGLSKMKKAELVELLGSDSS

B1: petB 3' UTR (ssRNA)
RNA: GACUGAAGCUAACUUUGGUUGGUUAAUCCGAUCAGUUCAUCGAUGGUCGGCAAGUAUGAUGGUCCUAAUG
B2: 23S-4.5Sa dsRNA (dsRNA)
RNA 1: UUCCUCUAUUUGUUCGAUAGGGGAGAUUCCGACUUCCCCAGAGCCUCCGGUAGCACAGCCGAGACAGCAACGGGUUCUCCGCCCCUGCGGGGAUG
RNA 2: CAUCCCCGCAGGGGCGGAGAACCCGUUGCUGUCUCGGCUGUGCUACCGGAGGCUCUGGGGAAGUCGGAAUCUCCCCUAUCGAACAAAUAGAGGAA
B3: petB 5' UTR (ssRNA)
RNA: GGUAGUUCGACCGCGAAAUUUUUUUCUGCAUUGUAUAUUUCCGGAAUAUGAGUGUGUGACUUGUUAGAAU

Target: T1, GST-Rho-N-Strep (RHON1 C-terminal Rho-N …)
Experiment: EMSA

Does B1 bind?
Result: binds

Does B2 bind?
Result: no binding

Does B3 bind?
Result: binds

Does UUCUAGUACAACUAUUGCAGUAGAAUGACAA (ssRNA) [petA 5' UTR 31-mer] bind?
Result: no binding
